{"source": "patent US20210079423", "key": {"[1]": {"test_system": "PR402: SP(HSA)-PTEN-L-HSA-6xHis (secreted, mature form)"}, "[2]": {"test_system": "PR405: SP(HSA)-PTEN-L-MMP2/9-HSA-6xHis (secreted form)"}, "[3]": {"test_system": "PR406: SP(HSA)-PTEN-L-cathepsin B-HSA-6xHis (secreted form)"}, "[4]": {"test_system": "PR407: SP(HSA)-PTEN-L-cathepsin B*-HSA-6xHis (secreted form)"}, "[5]": {"test_system": "PR408: SP(HSA)-PTEN-L-cathepsinB**-HSA-6xHis (secreted form)"}}}
{"substance": "recombinant active MMP2 protease (Enzo cat. #BML-SE237-0010)", "values": [{"measurement": "in vitro cleavage of the fusion (F-1 anti-PTEN western blot of digests at t=0, 4 h, 21 h)", "setting": "[1]", "value": "PR402 was not appreciably cleaved by either recombinant MMP2 or CATSB"}, {"measurement": "in vitro cleavage of the fusion, release of a PTEN-L-like fragment (~70 KDa)", "setting": "[2]", "value": "MMP2 did however cleave its consensus site (SEQ ID NO:165) on PR405 only; this cleavage released a PTEN-L-like fragment (~70 KDa)"}, {"measurement": "in vitro cleavage of the fusion", "setting": "[3]", "value": "MMP2 did however cleave its consensus site (SEQ ID NO:165) on PR405 only"}, {"measurement": "in vitro cleavage of the fusion", "setting": "[4]", "value": "MMP2 did however cleave its consensus site (SEQ ID NO:165) on PR405 only"}, {"measurement": "in vitro cleavage of the fusion", "setting": "[5]", "value": "MMP2 did however cleave its consensus site (SEQ ID NO:165) on PR405 only"}]}
{"substance": "active CATSB (Cathepsin B; BioVision #7580-5)", "values": [{"measurement": "in vitro cleavage of the fusion (F-1 anti-PTEN western blot of digests at t=0, 4 h, 21 h)", "setting": "[1]", "value": "PR402 was not appreciably cleaved by either recombinant MMP2 or CATSB"}, {"measurement": "in vitro cleavage of the fusion", "setting": "[2]", "value": "PR405 (SEQ ID NO:129; cDNA SEQ ID NO:157) was not cleaved by CATSB"}, {"measurement": "in vitro cleavage of the fusion", "setting": "[3]", "value": "though it did not cleave PR406 (SEQ ID NO:130; cDNA SEQ ID NO:158)"}, {"measurement": "pH dependence of in vitro cleavage (pH 5.0 against pH 7.0 buffer)", "setting": "[4]", "value": "CATSB only cleaves PR407 and PR408 at a low pH (FIG. 15)"}, {"measurement": "pH dependence of in vitro cleavage (pH 5.0 against pH 7.0 buffer)", "setting": "[5]", "value": "CATSB only cleaves PR407 and PR408 at a low pH (FIG. 15)"}]}
